Results reported in US20050221343A1.
Where “and” joins values, the source holds several entries; their conditions need not be identical. Identical values can stand only once.

Legend:
Test in all cases: cell-based or functional assay
[1] = target: (GFP S10 A10)-L1-NdeI::HPS::BamH1-L2-(GFP S11 SM5) (Pyrobaculum aerophilum)
[2] = target: (GFP S10 SM5)-L1-sulfite reductase-L2-(GFP S11 SM5) (Pyrobaculum aerophilum)
[3] = target: (GFP S10)-L1-sulfite reductase-L2-(GFP S11) (Pyrobaculum aerophilum)
[4] = target: sulfite reductase-GFP S10-11 OPT fusion protein (Pyrobaculum aerophilum; Aequorea victoria)

Sequence of (GFP S10 A10)-L1-NdeI::HPS::BamH1-L2-(GFP S11 SM5) (Pyrobaculum aerophilum) (main, as listed by the source): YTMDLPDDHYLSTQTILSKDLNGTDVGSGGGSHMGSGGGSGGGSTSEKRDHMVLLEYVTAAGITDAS
Sequence of (GFP S10 SM5)-L1-sulfite reductase-L2-(GFP S11 SM5) (Pyrobaculum aerophilum) (main, as listed by the source): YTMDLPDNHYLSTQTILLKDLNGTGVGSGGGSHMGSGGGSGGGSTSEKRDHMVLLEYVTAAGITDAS

complementation signal relative to detection with GFP 1-10 OPT [1]: 0.2 and 0.25 | complementation rate [2]: 20 fold | complementation efficiency relative to the C-terminal GFP S11 M3 + GFP 1-10 OPT format [3]: 0.033 | tagged fragment concentration at which complementation fluorescence plateaus, with limiting 2.5 µM GFP 1-9 OPT [4]: > 2.5 µM
Substance: GFP 1-9 OPT (from UniProt P42212 1-197)
